“Also recorded” adds a separate entry of the source.
Experiments:
[1] = Crystallisation of paracetamol in presence of hydrophobins (cooling from 95° C. to RT, visual assessment); format: physicochemical; conditions: 100 ppm protein; for visual assessment after 0 min (protein without API; no clouding = no denaturation): no API present, 95° C.; for visual assessment after 0 min / visual assessment <5 min: paracetamol present; for visual assessment after 0 min: after injection at 95° C.; for visual assessment <5 min: cooling at RT
Experimental: The hydrophobin solution is prepared by solubilization of 10 mg of lyophilized powder (protein content at least 60-80%) in 1 mL pure water. Insoluble residues are removed by centrifugation.
15 g of API (Paracetamol, Sigma) are dissolved in 150 mL pure water. Aliquots of 10 mL of the resulting solution are transferred into 15 mL sealable polypropylene tubes that have been pre-heated to 95° C. in order to prevent the onset of crystallization. To ensure uniform temperature, the tubes are shaken for 15-30 min at 95° and 750 rpm on a thermomixer (Eppendorf Thermomixer Comfort), then 100 μL of the hydrophobin solution is added under continued mixing at 95° C.; final protein concentration in the sample is 100 ppm. After 1-2 min the tubes are withdrawn from the thermomixer to allow cooling without shaking at RT. Control samples are treated in the same way except that 100 μL of pure water are added instead of the hydrophobin solution, or no API is present.

[2] = Crystallisation of benzamide in presence of SC, PO, TT or TR (cooling, visual assessment); format: physicochemical; conditions: 100 ppm protein
Experimental: 15 g of benzamide (Fluke) are dissolved in 150 mL pure water. Aliquots of 10 mL of the resulting solution are transferred into 15 mL sealable polypropylene tubes that have been pre-heated to 95° C. in order to prevent the onset of crystallization. To assure uniform temperature, the tubes are shaken for 15-30 min at 95° and 750 rpm on a thermomixer (Eppendorf Thermomixer Comfort), then 100 μL of the hydrophobin solution (prepared according to the method given in example 1) is added (the tubes are still shaken to allow homogeneous mixing and tempering). After 1-2 min the tubes are withdrawn from the thermomixer to allow cooling without shaking at RT. Control samples are treated in the same way except that 100 μL of pure water are added instead of the hydrophobin solution, or no API is present.
(§1) The results of a visual assessment after the hydrophobin injection (final concentration in the sample is 100 ppm) are compiled in the following table.

[3] = Crystallisation and redispersion of Venlafaxine (IPA, visual assessment); format: physicochemical; conditions: for re-suspension on pouring after vigorous shaking (Vortex) for 10-15 sec: Venlafaxine crystallized over night; for (RT) dispersability: Venlafaxine crystals
Experimental: 15 g of Venlafaxine (Ciba) are dissolved in 150 mL IPA. Aliquots of 10 mL of the resulting solution are transferred into 15 mL sealable polypropylene tubes that have been pre-heated to 95° C. To assure uniform temperature, the tubes are agitated for 15-30 min at 80° and 750 rpm on a thermomixer (Eppendorf Thermomixer Comfort), then 100 μL of the protein solution (prepared according to the method given in example 1) is added. Control samples are treated in the same way except that 100 μL of pure water are added instead of the hydrophobin solution, or no API is present.
as §1
The mother liquor crystallizes completely over night, with crystals adhering together covered by the solvent.

[4] = Crystallisation of Atorvastatin by evaporation in dishes, microscopic inspection; format: physicochemical; conditions: Atorvastatin in water/acetonitrile, 100 ppm hydrophobin, vs hydrophobin-free control
Experimental: a) 15 g of Atorvastatin (Ciba) are dissolved in 75 mL pure water and 75 mL acetonitrile by heating to 50° C. and stirring for 2 h. The resulting solution is filtered (0.45 μm). Aliquots of 10 mL are transferred into 15 mL sealable polypropylene tubes that have been pre-heated to 50° C. in order to prevent the onset of crystallization. To assure uniform temperature, the tubes are shaken for 15-30 min at 50° and 750 rpm on a thermomixer (Eppendorf Thermomixer Comfort), then 100 μL of the protein solution (prepared according to the method given in example 1) is added (final concentration: 100 ppm). Control samples are treated in the same way except that 100 μL of pure water are added instead of the hydrophobin solution, or no API is present.
1 mL of each sample is poured into dishes (Ø5 cm) in order to allow crystallization by evaporation. The dried crystals (˜20 h later) are microscopically inspected.

[5] = Atorvastatin crystallisation by evaporation on protein-coated object slides; format: physicochemical; conditions: object slides coated with protein (100 μg protein/mL over night), vs non-coated control
Experimental: b) In a further set of tests, object slides are coated with protein by incubation in a solution as prepared according to the method given in example 1 (100 μg protein/mL) over night. The object slides then are washed and air dried before 50 μL of Atorvastatin solution as described above is coated on the slide.

[6] = from 72; at 50 microgram/ml; cited from earlier work
[7] = Venlafaxine in IPA, 100 ppm protein

B1: PO: class I hydrophobin from Pleurotus ostreatus, produced recombinantly in E. coli (protein, UniProt O60048 22-113, looked up)
Class I hydrophobin POH3: IPRTNPPAPTCTTGSLQCCNSVQAASNPVVGLLAGLLGIVLGPITGQVGLTCSPITVIGVGGTSCSAQTVCCNGNSFNGLIVVGCSPVNISL
modifications: recombinant in E. coli
visual assessment after 0 min (protein without API; no clouding = no denaturation) [1]: clear | visual assessment after 0 min [1]: clouding | visual assessment <5 min [1]: few crystals | crystal size 15 min ([1]; paracetamol): cryst. 0.2-0.5 mm | crystal size <5 min ([1]; paracetamol): 0.2-0.5 mm | crystal size >20 h ([1]; paracetamol): crystals 0.5-1 mm | crystal size 15 min [2]: crystals 0.2-0.5 mm | crystal size <5 min [2]: 0.2-0.5 mm | crystal size >20 h [2]: crystals 0.5-1 mm | visual assessment <5 min [2]: few crystals | visual assessment after 0 min [2]: clouding | re-suspension on pouring after vigorous shaking (Vortex) for 10-15 sec [3]: predominantly the remaining mother liquor is poured out | (RT) dispersability [3]: poor | crystal size 20 min [3, 7]: crystals 0.2 mm | crystal size <5 min [3, 7]: crystals 0.1 mm | visual assessment 120 min [3, 7]: crystals | visual assessment after 0 min [3, 7]: clouding | crystal growth after crystallization by evaporation [4]: more evenly crystal growth | crystal growth by evaporation on coated glass surface [5]: more regular crystal growth; also recorded: more evenly crystal growth

B2: SC: class I hydrophobin from Schizophyllum commune, produced recombinantly in E. coli (protein, UniProt P16933 25-136, looked up)
Class I hydrophobin SC3: GGHPGTTTPPVTTTVTVTTPPSTTTIAAGGTCTTGSLSCCNQVQSASSSPVTALLGLLGIVLSDLNVLVGISCSPLTVIGVGGSGCSAQTVCCENTQFNGLINIGCTPINIL
modifications: recombinant in E. coli
visual assessment after 0 min (protein without API; no clouding = no denaturation) [1]: clear | visual assessment after 0 min [1]: streaks | visual assessment <5 min [1]: clear | crystal size 15 min ([1]; paracetamol): cryst. 0.1-0.2 mm | crystal size >20 h ([1]; paracetamol): crystals 0.5 mm | crystal size 15 min [2]: crystals 0.1-0.2 mm | crystal size <5 min [2]: 0.1-0.2 mm | crystal size >20 h [2]: crystals 0.5-1 mm | visual assessment <5 min [2]: few crystals | visual assessment after 0 min [2]: clouding | re-suspension on pouring after vigorous shaking (Vortex) for 10-15 sec [3]: complete emptying of the tubes | (RT) dispersability [3]: Best dispersability and best | visual assessment 20 min [3, 7]: clear | visual assessment 120 min [3, 7]: crystals | visual assessment <5 min [3, 7]: clear | visual assessment after 0 min [3, 7]: streaks | crystal growth after crystallization by evaporation [4]: more evenly crystal growth | crystal growth by evaporation on coated glass surface [5]: more regular crystal growth; also recorded: more evenly crystal growth | maximal lowering of the water surface tension [6]: 24 mJ m^−2

— patent US20110159050A1, “AMPHIPHILIC PROTEINS AS MORPHOLOGY MODIFIERS” (BASF SE, priority 2008, published 2011)
